Data as given in publication PMC5904255, “High-Mobility Group Box 1-Induced Complement Activation Causes Sterile Inflammation” (Frontiers in Immunology, 2018).

Columns and labels:
[1] = target: T1, purified normal human C1q (human, UniProt P02745 23-245; P02746 28-253; P02747 29-245); assay: SPR; reciprocal: HMGB1 WT (R&D), A box or B box (10 µg/ml) immobilised on CM5 chip in 10 mM sodium acetate pH 4.0; C1q in HBS-EP (10 mM HEPES, 150 mM NaCl, 3.4 mM EDTA, 0.05% Tween 20, pH 7.4) at 200, 100, 50, 25 and 12.5 nM, 20 µl/min for 3 min; BIAcore 2000; conditions: both partners purified
T1 construct: Complement C1q subcomponent subunit A, human; Complement C1q subcomponent subunit B, human; Complement C1q subcomponent subunit C, human; Used purified (ELISA, SPR) and in 10% normal human serum (microspheres); also called serum C1q; C1q protein; source: bought: Sigma (purified normal human C1q); endogenous, normal human serum; copies: + +

[2] = target: T1, purified normal human C1q; assay: SPR; C1q immobilised on CM5 dextran sensor chip; HMGB1 proteins passed over at 1.8, 0.9, 0.45, 0.23 and 0.11 µM; BIAcore 2000; conditions: both partners purified

T1 sequence (P02745 23-245, chain 1 of 3): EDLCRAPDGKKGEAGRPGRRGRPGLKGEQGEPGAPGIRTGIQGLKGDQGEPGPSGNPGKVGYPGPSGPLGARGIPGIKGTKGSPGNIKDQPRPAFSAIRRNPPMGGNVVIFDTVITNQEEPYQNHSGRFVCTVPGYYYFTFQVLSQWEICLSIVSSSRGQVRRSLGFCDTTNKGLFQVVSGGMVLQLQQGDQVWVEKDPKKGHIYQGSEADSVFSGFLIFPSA
T1 sequence (P02746 28-253, chain 2 of 3): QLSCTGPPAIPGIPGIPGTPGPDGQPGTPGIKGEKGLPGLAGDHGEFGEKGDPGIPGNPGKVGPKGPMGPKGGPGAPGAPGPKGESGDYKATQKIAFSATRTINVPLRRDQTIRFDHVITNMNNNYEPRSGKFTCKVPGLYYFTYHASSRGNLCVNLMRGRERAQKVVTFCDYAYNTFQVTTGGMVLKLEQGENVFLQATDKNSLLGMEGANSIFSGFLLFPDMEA
T1 sequence (P02747 29-245, chain 3 of 3): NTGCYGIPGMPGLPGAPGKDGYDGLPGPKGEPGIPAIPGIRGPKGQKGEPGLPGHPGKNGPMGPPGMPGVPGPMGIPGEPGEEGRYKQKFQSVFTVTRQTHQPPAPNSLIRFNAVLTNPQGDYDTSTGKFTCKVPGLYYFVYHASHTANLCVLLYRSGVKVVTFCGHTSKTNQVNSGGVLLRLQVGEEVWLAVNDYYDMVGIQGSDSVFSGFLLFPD

Binder | Kd [1] | Kd [2]
HMGB1 produced in NS0 mouse myeloma cell line (Euk-HMGB1, R&D Systems) (natural protein, human, UniProt P09429 1-215, looked up, High-mobility group box 1 (HMGB1), human, produced in mouse myeloma cell line NS0; No catalogue number is printed; also called HMGB1 WT (R&D); source: bought: R&D Systems (produced in NS0 mouse myeloma cell line)) MGKGDPKKPRGKMSSYAFFVQTCREEHKKKHPDASVNFSEFSKKCSERWKTMSAKEKGKFEDMAKADKARYEREMKTYIPPKGETKKKFKDPNAPKRPPSAFFLFCSEYRPKIKGEHPGLSIGDVAKKLGEMWNNTAADDKQPYEKKAAKLKEKYEKDIAAYRAKGKPDAAKKGVVKAEKSKKKKEEEEDEEDEEDEEEEEDEEDEDEEEDDDDE | ~0.4 µM | 
HMGB1 box A (aa 1-79) (domain or fragment, human, UniProt P09429 1-79, looked up, HMGB1, human, A box, aa 1-79; Subcloned into pRSET B; also called HMGB1 A box; A box; source: E. coli BL21 (DE3) pLysE, purified) MGKGDPKKPRGKMSSYAFFVQTCREEHKKKHPDASVNFSEFSKKCSERWKTMSAKEKGKFEDMAKADKARYEREMKTYI |  | ~4 µM
HMGB1 box B (aa 88-162) (domain or fragment, human, UniProt P09429 88-162, looked up, HMGB1, human, B box, aa 88-162; Subcloned into pRSET B; also called HMGB1 B box; B box; source: E. coli BL21 (DE3) pLysE, purified) KFKDPNAPKRPPSAFFLFCSEYRPKIKGEHPGLSIGDVAKKLGEMWNNTAADDKQPYEKKAAKLKEKYEKDIAAY |  | ~4 µM
